From patent US20060094663A1 (VALORISATION RECHERCHE SOCIETE EN COMMANDITE, published 2006)
Where no end group is shown, it is not given here. [ ]: non-standard residue; d: D form. dOrn = NCCC[C@@H](N)C(=O)O

How the values were obtained:
Assay in all cases: cell-based or functional assay
[1] = molecular target: T1, IL-1R/IL-1RacP receptor on human cells (human, UniProt P14778 18-569; Q9NPH3 21-570)
T1 sequence (looked up) 1: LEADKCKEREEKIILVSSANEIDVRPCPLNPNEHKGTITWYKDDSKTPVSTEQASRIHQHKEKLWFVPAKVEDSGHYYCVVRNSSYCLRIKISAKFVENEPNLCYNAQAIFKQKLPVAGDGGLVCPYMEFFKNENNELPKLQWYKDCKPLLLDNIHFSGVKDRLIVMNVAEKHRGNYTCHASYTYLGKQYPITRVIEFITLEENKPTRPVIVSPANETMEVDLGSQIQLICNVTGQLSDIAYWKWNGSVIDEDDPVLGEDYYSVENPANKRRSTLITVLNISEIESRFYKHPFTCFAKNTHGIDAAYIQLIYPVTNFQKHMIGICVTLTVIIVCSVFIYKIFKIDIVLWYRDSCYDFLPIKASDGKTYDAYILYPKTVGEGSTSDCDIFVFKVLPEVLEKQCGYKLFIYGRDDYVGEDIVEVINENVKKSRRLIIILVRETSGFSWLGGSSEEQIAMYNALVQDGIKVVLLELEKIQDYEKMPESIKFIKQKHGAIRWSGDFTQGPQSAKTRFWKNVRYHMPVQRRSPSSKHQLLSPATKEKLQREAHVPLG
T1 sequence (looked up) 2: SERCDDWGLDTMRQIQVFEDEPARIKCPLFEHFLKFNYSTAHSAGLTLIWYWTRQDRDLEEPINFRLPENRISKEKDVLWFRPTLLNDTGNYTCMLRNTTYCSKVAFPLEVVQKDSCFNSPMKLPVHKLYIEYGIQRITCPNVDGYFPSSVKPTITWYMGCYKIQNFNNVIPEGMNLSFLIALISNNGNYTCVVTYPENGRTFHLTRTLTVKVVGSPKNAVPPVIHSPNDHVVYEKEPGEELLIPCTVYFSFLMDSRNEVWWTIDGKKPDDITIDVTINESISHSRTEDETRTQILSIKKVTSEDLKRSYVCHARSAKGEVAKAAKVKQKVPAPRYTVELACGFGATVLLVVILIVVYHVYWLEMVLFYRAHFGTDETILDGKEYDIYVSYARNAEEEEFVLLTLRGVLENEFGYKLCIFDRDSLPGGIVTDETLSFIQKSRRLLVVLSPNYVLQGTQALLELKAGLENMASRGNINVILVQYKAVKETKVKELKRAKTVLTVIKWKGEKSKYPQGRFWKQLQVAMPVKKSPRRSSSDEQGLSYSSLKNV

[2] = molecular target: T2, IL-1R/IL-1RacP receptor on porcine cells and vessels (porcine (piglet), UniProt A0A5G2QSI4 18-572)
T2 sequence (A0A5G2QSI4 entry or part of it): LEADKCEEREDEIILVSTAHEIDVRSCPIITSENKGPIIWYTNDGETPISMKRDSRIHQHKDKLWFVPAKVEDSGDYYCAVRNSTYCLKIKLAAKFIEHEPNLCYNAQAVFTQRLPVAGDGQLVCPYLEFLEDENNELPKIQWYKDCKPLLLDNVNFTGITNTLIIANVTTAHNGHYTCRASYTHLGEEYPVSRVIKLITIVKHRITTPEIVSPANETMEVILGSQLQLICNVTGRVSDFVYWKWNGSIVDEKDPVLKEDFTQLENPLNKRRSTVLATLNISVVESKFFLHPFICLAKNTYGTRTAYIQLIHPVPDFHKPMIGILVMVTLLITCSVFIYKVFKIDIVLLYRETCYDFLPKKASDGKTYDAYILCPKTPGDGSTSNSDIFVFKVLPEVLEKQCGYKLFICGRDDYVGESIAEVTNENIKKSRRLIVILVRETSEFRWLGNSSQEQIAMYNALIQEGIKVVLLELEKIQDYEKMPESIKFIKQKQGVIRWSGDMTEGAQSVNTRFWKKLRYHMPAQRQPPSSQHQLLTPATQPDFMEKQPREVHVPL

[3] = molecular target: T1, IL-1R/IL-1RacP receptor on human cells; remark: listed apart in the source
[4] = molecular target: T1, IL-1R/IL-1RacP receptor on human cells; remark: listed apart in the source
[5] = molecular target: T2, IL-1R/IL-1RacP receptor on porcine …; remark: listed apart in the source
[6] = molecular target: IL-1R/IL-1RacP receptor (cells or tissue whose species is not stated)

[dR][dY][dT][dV][dQ][dL][dA] [API-101.103]
IC50, IL-1-induced PGE2 synthesis, human WI-38 cells [1]: 0.05 pM

[dR][dY][dT][dP][dE][dL] [API-101.113]
Emax (%), IL-1β-induced PGE2 synthesis in endothelial cells (porcine) [2]: 80%
IC50, IL-1β-induced PGE2 synthesis in endothelial cells (porcine) [2]: 0.0074 nM

[dY][dT][dV][dE][dL][dA] [API-101.11]
percent of IL-1β-induced proliferation of WI-38 human lung fibroblasts abolished [1]: 100%

[dR][dF][dV][dP][dE][dL][dA] [API-101.127]
Emax (%), IL-1β-induced TF-1 proliferation [3]: < 30%

[dOrn][dY][dT][dP][dE][dL] [API-101.126]
Emax (%), IL-1β-induced TF-1 proliferation [3]: 0%

[dR][dW][dT][dP][dE][dL] [API-101.128]
Emax (%), IL-1β-induced TF-1 proliferation [3]: 100%
IC50, IL-1β-induced TF-1 proliferation [3]: 3 nM

[dR][dY][dT][dP][dE][dV] [API-101.129]
Emax (%), IL-1β-induced TF-1 proliferation [3]: 50%
IC50, IL-1β-induced TF-1 proliferation [3]: 400 nM

[dK][dY][dT][dP][dE][dL][dA] [API-101.114]
Emax (%), IL-1β-induced PGE2 synthesis in endothelial cells (porcine) [2]: 50%
IC50, IL-1β-induced PGE2 synthesis in endothelial cells (porcine) [2]: 0.002 nM

[dR][dW][dT][dP][dE][dL][dA] [API-101.116]
Emax (%), IL-1β-induced proliferation in TF-1 cells (human) [4]: 75%
IC50, IL-1β-induced proliferation in TF-1 cells (human) [4]: 0.5 nM
Emax (%), IL-1β-induced PGE2 synthesis in endothelial cells (porcine) [2]: 45%
IC50, IL-1β-induced PGE2 synthesis in endothelial cells (porcine) [2]: 0.013 nM

[dR][dY][dT][dV][dE][dL][dA] [API-101.10]
IC50, IL-1-induced PGE2 synthesis, WI-38 cells [1]: 0.2 nM
percent of IL-1β-induced proliferation of WI-38 human lung fibroblasts abolished [1]: 100%
IC50, IL-1-induced PGE2 synthesis, endothelial cells [5]: 1.2 nM
IC50, IL-1-induced vasodilation (ex vivo vasomotricity, protocol of Example 1) [5]: 10.8 nM
fold potency against API-101, IL-1-induced vasodilation (ex vivo) [5]: 100 fold

[dA][dP][dR][dY][dT][dV][dE][dL][dA] [API-101]
IC50, IL-1-induced PGE2 synthesis, WI-38 cells [1]: 790 nM
IC50, effect of IL-1β (10 ng/ml) on proliferation of A549 carcinoma cells, 3H-thymidine [1]: 1000 nM
percent of IL-1β-induced proliferation of WI-38 human lung fibroblasts abolished [1]: 65%
IC50, IL-1-induced PGE2 synthesis, endothelial cells [5]: 220 nM
IC50, IL-1-induced PGE2 synthesis, microvascular endothelial cells [5]: 1000 nM
IC50, IL-1β-induced vasodilation of piglet pial vessels (ex vivo) [5]: 182 nM

[dK][dY][dT][dP][dE][dL] [API-101.133]
Emax (%), IL-1β-induced TF-1 proliferation [3]: < 10%

[dOrn][dY][dT][dP][dE][dL][dA] [API-101.115]
Emax (%), IL-1β-induced proliferation in TF-1 cells (human) [4]: 100%
IC50, IL-1β-induced proliferation in TF-1 cells (human) [4]: ~0.001 nM

[dR][dY][dT][dP][dE][dL][dA] [API-101.107]
IC50, IL-1-induced PGE2 synthesis, human WI-38 cells [1]: 0.1 pM
IC50 (FIG. 15; cell type not given) [6]: 0.0012 nM

[dR][dY][dT][dP][dD][dL][dA] [API-101.117]
Emax (%), IL-1β-induced PGE2 synthesis in endothelial cells (porcine) [2]: 100%
IC50, IL-1β-induced PGE2 synthesis in endothelial cells (porcine) [2]: 0.01 nM
